For the assay, the target named is RSV post-fusion F (Flys-GCN without StrepII-tag) (Respiratory Syncytial Virus). Briefly: cryo-EM structure.

With “RSV post-fusion F (Flys-GCN without StrepII-tag)”, the stoichiometry N came out at 3.

Broadly, the stoichiometry N is the number of molecules, sites or subunits per partner or assembly.

For the origin of these results see publication doi:10.1101/2025.01.04.631317.
